The nature of one data set: Substrate specificity. To be noted: 333 mM. Format: biochemical. The source says:
As these substrates, maltose, D-galactose, D-fructose, sorbitol, lactose, sucrose, D-xylose, D-mannose and trehalose were used. When the activity to D-glucose was defined as 100%, the relative activity to each substrate was found. These relative activities are described collectively as the substrate specificity in Table 2.

The nature of data set [1]: Temperature characteristics. In kind it is biochemical. The procedure:
The relative activity at each temperature was calculated when the activities at 30 and 45° C. were each defined as 100%. In this case, each sample was measured twice in the same condition. An average of the measured relative activities is collectively described in Table 3.

Where [2] appears, read: substrate D-fructose, D-glucose = 100%.
The mark [3] stands for this setting: substrate D-galactose, D-glucose = 100%.
Setting [4] is: substrate D-glucose (defined as 100%).
[5] abbreviates: substrate D-mannose, D-glucose = 100%.
[6] abbreviates: substrate D-xylose, D-glucose = 100%.
Where [7] appears, read: substrate lactose, D-glucose = 100%.
The mark [8] stands for this setting: substrate maltose, D-glucose = 100%.
[9] abbreviates: substrate sorbitol, D-glucose = 100%.
The mark [10] stands for this setting: substrate sucrose, D-glucose = 100%.
Setting [11] is: substrate trehalose, D-glucose = 100%.

B1: BotGLD: purified enzyme of GLD derived from Botrytis tulipae, produced in A. oryzae NS4 carrying the BotGLD-Atsig modified gene (protein, listed as Botrytis tulipae)
chain: MYRLLSTFALASLAAASTDSTLTYDYIVIGAGTSGLVIANRLSELNVTVAVIEAGDSGYNNPNVTNPSGYGLSFGTDIDWAYQSTNQKYAGNTSQVLRAGKIIGGTSTINGMAYTRAEDVQIDAWAAIGNDGWNWANLFPYYKKSQTLEIPTTAQVEAGAAYDASANGFDGPLKVGWLNSLEDTSNFHTTLNDTFAGLGVPSNDDVNTGRMVGYSRYPATYDRTLNVRHDAGRAYYYPIANRTNLHLYPNTMAQRLTWTSDANTPTANGVEVLSNNSSIPYTIHANSEVILSAGALASPLLLELSGIGNPSILSKHNISVVVDLPTVGENLQDQTNTGLAYNSSGNTSFSGAGTLVAYPSAAQLFGSEVQKISAHVLQSLPSYAAQVSAASGNITKAADLLKFFKIQHDLIFSTTHPVPMAEILISPSATAFSSEYWALLPFARGSIHITSSVAGTPAAINPNYFMFDWDVTSQIATAKFIRSIYAASPLSSFVGSETKPGLNKVSANATEAEWFDWVKTAYRSNFHPVSTAAMMPREIGGVVDSRLKVYGTANVRVVDASILPMQVSGHLVSTLYAVAERAADLIKEDI
modifications: CDS (1)..(1773); sig_peptide (1)..(57)
notes: purified enzyme of GLD derived from Botrytis tulipae, produced in A. oryzae NS4 carrying the BotGLD-Atsig modified gene
Regarding B1, the Relative activity in “Substrate specificity” (setting [2]) was below 0.1%; in the data set “Substrate specificity” (setting [3]), 0.76%; in “Substrate specificity” (setting [4]), 100%; in the data set “Substrate specificity” (setting [5]) it was 8.2%; in “Substrate specificity” (setting [6]) it was 20%; in the data set “Substrate specificity” (setting [7]), below 0.1%. The Relative activity is 1.5% in the data set “Substrate specificity” (setting [8]), below 0.1% in the data set “Substrate specificity” (setting [9]), below 0.1% in “Substrate specificity” (setting [10]) and 10% in “Substrate specificity” (setting [11]).

B2: DuGLD: purified enzyme of flavin-binding GLD derived from the genus Dumontinia (Dumontinia tuberosa NBRC30254) (protein, listed as Dumontinia tuberosa)
chain: MNHLLPAFALASLAVASPDLSLTYDYVIVGAGTSGLVIANRLSELNVTVAVIEAGDSGYNNVNVTNPAGYGLAFGTDIDWAYQSTNQKYAGNATQTLRAGKVIGGTSTINGMAYTRAEDVQIDAWAALGNDGWNWENLFPYYKKSQTLQAPTAAQAEAGATYDPSANGFDGPLKVGWLKSLANDDFHIILNDTYASLGIFANEDVNTGRMVGYNRYPVTYDETLNVRHDAGRAYYYPIANRTNLHLYPNTMAQRLTWKSGADVPTANGVEVLTNNSSIPYTISANSEVILSAGALASPLLLELSGIGNPSLLNKYNIPVVVDLPTVGENLQDQTNNGLAYTVSKDASFSGVGTLVTYPSAAQVFGSEIQNISAHVLDSLPSYAAQVSAASGNVTKAADLLEFFKIQHDLIFSTTHPVPMAEILVIPSATGFKSEYWALLPFARGNIHITSSIPGTPAAINPNYYMLDWDITSQITTAKFIRSVYATSPLSTLVGSETKPGLETLSANATEAEWSEWIKAGYRPNFHPVSTAAMMPREVGGVVDSRLKVYGTSNVRVVDASVLPMQVSGHLVSTLYAVAERAADLIKEDI
modifications: CDS (1)..(1770); sig_peptide (1)..(57)
For B2, the Relative activity was below 0.1% in “Substrate specificity” (setting [2]); 0.28% in the data set “Substrate specificity” (setting [3]); 100% in “Substrate specificity” (setting [4]); 1.7% in the data set “Substrate specificity” (setting [5]); 10% in “Substrate specificity” (setting [6]); below 0.1% in “Substrate specificity” (setting [7]). The Relative activity in “Substrate specificity” (setting [8]) is 0.54%; in “Substrate specificity” (setting [9]) it was below 0.1%; in “Substrate specificity” (setting [10]), below 0.1%; in the data set “Substrate specificity” (setting [11]), 1.0%; in data set [1] (10° C., substrate 10 mM, 100% at 30° C.), 60.6%; in data set [1] (10° C., substrate 10 mM, 100% at 45° C.), 60.1%. Besides, the Relative activity in data set [1] (10° C., substrate 50 mM, 100% at 30° C.) turned out to be 56.0%; in data set [1] (10° C., substrate 50 mM, 100% at 45° C.), 50.5%; in data set [1] (20° C., substrate 10 mM, 100% at 30° C.) it was 81.5%; in data set [1] (20° C., substrate 10 mM, 100% at 45° C.), 80.7%; in data set [1] (20° C., substrate 50 mM, 100% at 30° C.), 77.9%; in data set [1] (20° C., substrate 50 mM, 100% at 45° C.), 70.3%. Besides, the Relative activity was 100% in data set [1] (30° C., substrate 10 mM, 100% at 30° C.); 99.1% in data set [1] (30° C., substrate 10 mM, 100% at 45° C.); 100% in data set [1] (30° C., substrate 50 mM, 100% at 30° C.); 90.2% in data set [1] (30° C., substrate 50 mM, 100% at 45° C.); 108% in data set [1] (40° C., substrate 10 mM, 100% at 30° C.); 107% in data set [1] (40° C., substrate 10 mM, 100% at 45° C.). In addition, the Relative activity in data set [1] (40° C., substrate 50 mM, 100% at 30° C.) was determined as 109%; in data set [1] (40° C., substrate 50 mM, 100% at 45° C.) it was 98.6%; in data set [1] (45° C., substrate 10 mM, 100% at 30° C.), 101%; in data set [1] (45° C., substrate 10 mM, 100% at 45° C.), 100%; in data set [1] (45° C., substrate 50 mM, 100% at 30° C.), 111%; in data set [1] (45° C., substrate 50 mM, 100% at 45° C.), 100%. Besides, the Relative activity in data set [1] (50° C., substrate 10 mM, 100% at 30° C.) came to 87.5%; in data set [1] (50° C., substrate 10 mM, 100% at 45° C.), 86.7%; in data set [1] (50° C., substrate 50 mM, 100% at 30° C.), 105%; in data set [1] (50° C., substrate 50 mM, 100% at 45° C.), 94.4%.

B3: CiGLD: purified enzyme of GLD derived from the genus Ciborinia, produced in A. oryzae NS4 carrying the CiGLD-Atsig modified gene (protein, listed as Ciborinia camelliae)
chain: MHRFLPAFVLASLAAASQDVALTYDYVIVGAGTSGLVTAHRLSELADVTVAVIEAGESNYNNANVTNPAGYGLAFGTQIDWQYQTTVQEYGGDVTKVIRAGKSIGGTSTINGMAYTRAEDVQVDAWEALGNEGWNWANMLPYYKKSQTLQVPTEAQAALGAHYDPASNGYEGPLKVGWVNAMATDDFHTILNETYAALDVPANNDVNTGKMIGYTRYPATYDRTLNMRCDAGRAYYYPIQNRTNLHLYPNTMAQRLTWKSGASTPTAEGVEVLADGETTPYTIHASSEVIISAGALGSPLVLEHSGIGNPAILEKYNISVVVDLPTVGENLQDQTNTALGFDTSSDNVTYSAVSTYLGYPSAAQMFGSDFKTVAAEILAALPSYADKVAIASGNVTKAADLLKFFKIQYELIFSATSPVPVAELLVTPVGTTYSAEFWSLLPFSRGNIHISSATPGVAATINPNYFMLDYDMISQVRSAKYIREIFATTPLSPLVGSETTPGLDSIASAATEAEWAAWVKTAYRSNFHPVATAAMMPREIGGVVDSRLKVYGTTNVRVVDASILPMQVCGHLTSTLYAMSERAADLIKEDM
modifications: CDS (1)..(1776); sig_peptide (1)..(57)
notes: purified enzyme of GLD derived from the genus Ciborinia, produced in A. oryzae NS4 carrying the CiGLD-Atsig modified gene
On to B3, for which the Relative activity in “Substrate specificity” (setting [2]) was found to be 0.49%; in “Substrate specificity” (setting [3]), 10%; in the data set “Substrate specificity” (setting [4]), 100%; in “Substrate specificity” (setting [5]), 23%; in the data set “Substrate specificity” (setting [6]), 25%; in “Substrate specificity” (setting [7]), 0.21%. The Relative activity in the data set “Substrate specificity” (setting [8]) was 6.4%; in “Substrate specificity” (setting [9]), 0.38%; in the data set “Substrate specificity” (setting [10]) it was 0.40%; in “Substrate specificity” (setting [11]) it was 20%.
